Here are results for 7 molecules from US20240287172A1 (SCIRHOM, published 2024).

Residue numbers refer to the chain shown, from its start.

Sequences and labels used below:
T1: hiR2-FL-K536A-T7 (human, UniProt Q6PJF5 1-856)
T1 construct: on MEF-DKO cells
T1 sequence: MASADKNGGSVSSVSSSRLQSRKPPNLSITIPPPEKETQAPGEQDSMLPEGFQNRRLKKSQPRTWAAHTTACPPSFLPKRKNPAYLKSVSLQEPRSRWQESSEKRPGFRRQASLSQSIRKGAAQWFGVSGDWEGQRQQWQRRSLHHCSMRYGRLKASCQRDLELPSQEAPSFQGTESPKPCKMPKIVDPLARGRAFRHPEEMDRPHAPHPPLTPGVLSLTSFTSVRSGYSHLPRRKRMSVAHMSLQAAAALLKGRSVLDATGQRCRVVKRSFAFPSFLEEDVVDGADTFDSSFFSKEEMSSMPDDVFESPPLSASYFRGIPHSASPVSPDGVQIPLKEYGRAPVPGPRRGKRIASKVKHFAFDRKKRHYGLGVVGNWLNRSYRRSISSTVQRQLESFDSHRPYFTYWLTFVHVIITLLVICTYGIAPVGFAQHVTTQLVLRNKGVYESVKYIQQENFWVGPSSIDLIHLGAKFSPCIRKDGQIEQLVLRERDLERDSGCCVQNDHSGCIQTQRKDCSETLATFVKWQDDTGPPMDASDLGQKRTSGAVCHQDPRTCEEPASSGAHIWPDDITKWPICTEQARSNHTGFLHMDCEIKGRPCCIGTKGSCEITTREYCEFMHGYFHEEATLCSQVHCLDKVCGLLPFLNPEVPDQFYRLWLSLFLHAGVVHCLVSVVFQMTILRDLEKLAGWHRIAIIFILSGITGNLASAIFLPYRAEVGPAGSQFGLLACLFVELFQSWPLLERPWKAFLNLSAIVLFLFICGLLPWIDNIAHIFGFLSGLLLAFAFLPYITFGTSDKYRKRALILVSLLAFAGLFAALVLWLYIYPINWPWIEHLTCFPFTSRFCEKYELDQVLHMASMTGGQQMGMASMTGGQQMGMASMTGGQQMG

T2: hiR2-FL-R554A-T7 (human, UniProt Q6PJF5 1-856)
T2 sequence: T1 sequence with A536K, R554A

B1: antibody 48 (antibody, V domains shown)
VH: QVQLQQSGTELVRPGTSVKVSCKASGYAFTNYLIEWVKQRPGQGLEWIGVINPGSGFTKYNEKFKGKATLTADKSSSTVYMHLSSLTSEDSAVYFCARGLYRAMDYWGQGTSVTVSS
VL: DIQMTQSPASQSASLGESVTITCLASQTIATWLAWYQQKPGKSPQLLIYGATTLADGVPSRFSGGGSGTKFSFKISSLQAEDFVSYYCQQLYSTPYTFGGGTKLEIK
notes: mouse IgG, kappa light chain; also called clone #48; purified antibody 48
B2: antibody 5 (antibody, V domains shown)
VH: QVTLKESGPGILQPSQTLSLTCSFSGFSLSTFGMGVGWIRQPSGKGLEWLAHIWWDDEKYYNSALKSRLTISKATSKNQAFLKIANVDTADTATYYCARISNYGSNYWYFNVWGTGTTVTVSS
VL: QVVLTQSPALMSASPGEKVTMTCSAGSSVSCMYWYQQKPGSSPRVLIYDTSNLASGVPARFTGSGSGTSYSLTISRMEAEDAASYYCQQWNSYPLTFGAGTKLELK
notes: mouse IgG, kappa light chain; also called clone #5; purified antibody 5
B3: antibody 43 (antibody, V domains shown)
VH: B2 VH with T3A, P42S, H52N, E58D, S63P, A74D, T75A, S101G, N111D
VL: QIVLTQSPAIMSASPGERVTMTCSANSRISYMYWYQQKPGSSPRLLIYDTSNLASGVPVRFSGSGSGTSYSLTISRMEAEDAATYNCQQWSSYPLTFGAGTKLELK
notes: mouse IgG, kappa light chain; also called clone #43; purified antibody 43
B4: antibody 16 (antibody, V domains shown)
VH: QVTLKESGPGILQPSQTLSLTCSFSGFSLSTFALGVGWIRQPSGRGLEWLAHIWWDDDKYYNPALKSRLTISKDTSKNHVFLKIANVDTADTATYYCARITTYYYGMDYWGQGTSVTVSS
VL: DIVLSQSPATLSVTPGDSVSLFCRASQSIGNHLHWYQQESHASPRLLIKYASQSISGIPSRFSGSGSGTDFTLSINSVETEDFGMYFCQQSYNWPLTFGAGTKLELK
notes: mouse IgG, kappa light chain; also called clone #16; purified antibody 16
B5: antibody 3 (antibody, V domains shown)
VH: QVTLKESGPGILQPSQTLSLTCSFSGFSLTTFAMGIGWVRQPSGKGLEWLAHIWWDGEKYNNPVLKSRLTISKDTSKNQVFLRIANVDTPDTATYYCARISSIYYIIDNWGQGTSVTVSS
VL: B4 VL with S5T, D17H, F22S, G30S, H32N, Q38K, E39K, A42E, A51V
notes: mouse IgG, kappa light chain; also called clone #3; purified antibody 3
B6: antibody 44 (antibody, V domains shown)
VH: B2 VH with G44E, E58D, S63P, A74D, A80I, A85T, D91E, A98S, S101G, N111D
VL: QIVLTQSPAVMSASPGEKVTMTCTASSSVYYMYWYQQTPGSSPRLLIYDTSNLASGVPVRFSGSGSGTSYSLTISRMEAEDAATYYCQQWNTYPLTFGAGTKLELK
notes: mouse IgG, kappa light chain; also called clone #44; purified antibody 44
B7: antibody 22 (antibody, V domains shown)
VH: B2 VH with A80V
VL: B2 VL with C31Y, S84T
notes: mouse IgG, kappa light chain; also called clone #22; purified antibody 22

The first experiment concerns the target T1, hiR2-FL-K536A-T7. Kind of experiment: FACS on MEF-DKO cells expressing the variant, 3 µg/ml antibody. The gist of the method:
(§1)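 Primary stain: antibody 3 μg/ml, 1 h on ice; controls buffer alone. Secondary: PE anti-mouse IgG F(ab′)2 1:100, 1 h on ice, light-protected. Washes at 4° C; read by flow cytometry.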
Take B1: the “loss of binding vs wild type” value was no less than 30%.

Regarding B2, the “loss of binding vs wild type” value is no less than 95%.

As for B3, the “loss of binding vs wild type” value was no less than 60%.

For the molecule B4, the “loss of binding vs wild type” value is no less than 60%.

With B5, the “loss of binding vs wild type” value was no less than 60%.

The target in the next experiment is T2, hiR2-FL-R554A-T7. The experiment is described as above. The gist of the method: as §1
On to B1, for which the “loss of binding vs wild type” value is no less than 30%.

With B2, the “loss of binding vs wild type” value was no less than 60%.

With B6, the “loss of binding vs wild type” value is no less than 60%.

Regarding B3, the “loss of binding vs wild type” value is no less than 30%.

In the case of B7, the “loss of binding vs wild type” value was no less than 30%.
